According to patent US11319366B2, “Antibody facilitating programmed necrosis of cells and application thereof” (SHANGHAI JW INFLINHIX CO., LTD., priority 2015, dated 2022):
Entries after “also recorded” stand apart in the source; their conditions may differ. One block for each molecule: values may come before it.

Legend:
L929 cells = assay: Apoptosis and necrosis assay (live/dead staining, active caspase-3, flow cytometry) in L929 cells; assay type: cell-based, mouse
Experimental: (§1) The cells were stained with live/dead cell staining kits (Invitrogen, Paisley, UK) instructed by the manufacturer's manual and fixed using cytofix/cytoperm fixation/permeabilization solution kits (BD Pharmingen, Oxford, UK). This was followed by intracellular staining with FITC-conjugated anti-caspase-3 antibody (Cell Signaling Technology, Danvers, Mass., USA). Cells were acquired on a CyAn flow cytometer (Beckman Coulter, Fullerton, Calif.) and data were analyzed using Flowjo (Tree Star Inc. Ashland, Oreg.).

TNF [1] = molecular target: T1, TNF (Homo sapiens, UniProt P01375); assay: ELISA screening of monoclonal antibodies for binding to TNF; settings: among 33 monoclonal antibodies
T1 construct: purchased Immunotools (Germany)
Experimental: A second antibody conjugated with HRP was used to detect the reaction. For the inhibition assay, TNFR1 or synovial fluids were added together with monoclonal antibodies.

[2] = tested on: TNF receptors on L929 cells; assay: L929 cells immunofluorescence (confocal) microscopy of TNF/antibody binding to TNF receptors; assay type: cell-based, mouse
Experimental: The cells were fixed with 4% paraformaldehyde (in PBS) for 10 min, blocked in a phosphate-buffer containing 0.5% BSA and 0.1% cold water fish-gelatin for 15 min and subsequently incubated with rabbit anti-TNFR1 antibodies (Abcam) for 1 hour. The cells were extensively washed in PBS and then incubated with the relevant secondary antibodies, which were conjugated with Alexa Fluor 488 or Alexa Fluor 568 21 (Invitrogen). PBS-washed specimens were then mounted in Gelvatol/DABCO (Sigma-Aldrich). DNA was counterstained with DAPI (Sigma-Aldrich). All samples were analyzed by fluorescent microscopy using a Nikon Eclipse 80i at 60×. Images were acquired with NIS-Elements AR3.0 software using a Hamamatsu camera.

TNF [3] = molecular target: T1, TNF; assay: Identification of binding epitope of the monoclonal antibody
[4] = tested on: C28I2 cells (chondrocytes); assay: Apoptosis assay (active caspase-3) in C28I2 cells; assay type: cell-based, human; settings: C28I2 cells stimulated by TNF
Experimental: as §1

T1 sequence (P01375 77-233 limits assumed): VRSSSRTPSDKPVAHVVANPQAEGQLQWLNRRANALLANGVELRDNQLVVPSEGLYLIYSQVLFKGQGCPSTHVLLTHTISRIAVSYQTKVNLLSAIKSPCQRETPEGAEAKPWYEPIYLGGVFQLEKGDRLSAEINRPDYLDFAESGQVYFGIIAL

Molecule: CN1C(=O)C(Cc2c[nH]c3ccccc23)NC1=S (centres unmarked) [Nec-1, Necrostatin-1, reference compound]
effect on necrosis caused by 244-12+TNF (L929 cells; L929 cells, added into 244-12+TNF): cell necrosis was conversed into apoptosis; also recorded: cell necrosis transformed into apoptosis

binding to TNF by ELISA (TNF [1]): bound TNF the strongest | binding epitope (TNF [3]): QLVVPSE
B1: 244-12: anti-TNF monoclonal antibody specifically binding QLVVPSE; light chain SEQ ID NO: 10, heavy chain SEQ ID NO: 21 (antibody, listed as Homo sapiens)
heavy: QIQLVQSGPELKKPGETVKISCKASGYTFTNYGMNWVKQAPGKGLKWMGWINTYTGEPTYADDFKGRFAFSLETSANTAYLQINNLRNEGMATYFCARHYRYAWFPYWGQGTLVTVSAAKTTPPSVYPLAPGCGDTTGSSVTLGCLVKGYFPESVTVTWNSGSLSSSVHTFPALLQSGLYTMSSSVTVPSSTWPSQTVTCSVAHPASSTTVDKKLEPSGPISTINPCPPCKECHKCPAPNLEGGPSVFIFPPNIKDVLMISLTPKVTCVVVDVSEDDPDVQISWFVNNVEVHTAQTQTHREDYNSTIRVVSTLPIQHQDWMSGKEFKCKVNNKDLPSPIERTISKIKGLVRAPQVYILPPPAEQLSRKDVSLTCLVVGFNPGDISVEWASNGHTEENYKDTAPVLDSDGSYFIYSKLNMKTSKWEKTDSFSCNVRHEGLKNYYLKKTISRSPGK
light: DIQMTQSPASLSASVGETVTITCRASGNIHIYLAWYQQKQGKSPQLLVYNAKTLADGVPSRFSGSGSGTQYSLKINSLQPEDFGSYYCQHFWSIPWTFGGGTKLEIKRADAAPTVSIFPPSSEQLTSGGASVVCFLNNFYPKDINVKWKIDGSERQNGVLNSWTDQDSKDSTYSMSSTLTLTKDEYERHNSYTCEATHKTSTSPIVKSFNRNEC
TNF-induced apoptosis (active caspase-3 expression) (L929 cells; L929 cells stimulated by TNF): apoptosis was inhibited; also recorded: blocks TNF-induced apoptosis | cell fate (apoptosis / survival / necrosis) of L929 cells (L929 cells; L929 cells, TNF alone or antibody added with TNF): necrosis of L929 cells occurred; also recorded: necrosis of L929 cell | effect on binding of TNF to TNF receptors ([2]; confocal microscopy, in the presence of TNF): does not affect the binding of TNF to cell surface receptors | direct binding of antibody to cell surface ([2]; in the absence of TNF): can not directly bind to cell surface | TNF-induced apoptosis (active caspase-3 expression) [4]: blocks TNF-induced apoptosis
